In patent US20050176073A1, “Cell proliferation associated with CCX CKR expression” (ChemoCentryx, Inc., priority 2004, published 2005):

How the values were obtained:
CCX CKR [1] = target: T1, CCX CKR (Homo sapiens, UniProt Q9NPB9); experiment: Small molecule modulators of CCX CKR function
T1 sequence (Q9NPB9 1-350): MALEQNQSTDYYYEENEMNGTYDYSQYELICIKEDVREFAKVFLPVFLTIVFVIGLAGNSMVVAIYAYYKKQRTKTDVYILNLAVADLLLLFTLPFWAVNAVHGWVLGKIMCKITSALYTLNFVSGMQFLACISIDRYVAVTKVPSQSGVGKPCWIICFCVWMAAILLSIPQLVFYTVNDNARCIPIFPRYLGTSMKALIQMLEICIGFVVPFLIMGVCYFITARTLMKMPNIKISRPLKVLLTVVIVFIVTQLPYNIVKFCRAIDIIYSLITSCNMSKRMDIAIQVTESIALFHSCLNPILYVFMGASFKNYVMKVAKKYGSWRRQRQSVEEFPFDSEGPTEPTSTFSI
Source text: Other compounds are based upon agonists and antagonists for CCX CKR, which have been identified and are shown below: […]

[2] = tested on: untransfected HEK293 cells; experiment: PowerBlot protein expression analysis, untransfected HEK293 cells; type: cell-based, human; settings: untransfected HEK293 cells contacted with ligand; FIG. 2
Description: (§1) Studies were also conducted to assess what effect CCX CKR activity had on protein expression. This was analyzed by determining protein levels for both unstransfected HEK293 cells, and HEK293 cells transfected with CCX CKR, grown both in the presence and absence of the ligands ELC, SLC or TECK. Protein levels were determined using the BD PowerBlot™ technology developed by Becton Dickinson, and available from BD Biosciences Pharmingen. In general, this analysis involves separating proteins in cellular lysates by polyacrylamide electrophoresis and then conducting a Western blot with over 1,000 monoclonal antibodies specific for certain proteins. Antibodies that bind to a protein band on the gel are visualized using a digital camera that detects chemiluminescence from the bound antibody. The amount of protein can be determined based upon the strength of the signal. Further details regarding the application of this technology are discussed by Lorenz, P., et al. Proteomics (2003) 3:991-1002; Malakhov, M. P., et al. (2003) J. Biol. Chem. .278:16608-13; and Yoo, G. H., et al. (2002) Clin Cancer Res. 8:3910-21.
(§2) FIG. 2 provides a chart that provides a comparison of the number of proteins that were increased and decreased under different sets of conditions.

[3] = tested on: HEK293 cells transfected with CCX CKR; experiment: PowerBlot protein expression analysis, HEK293 cells transfected with CCX CKR; type: cell-based, human; settings: relative to cells simply transformed with CCX CKR; FIG. 2
Description: as §1, §2

CCX CKR [4] = target: T1, CCX CKR; settings: WO 01/27146; cited from earlier work
[5] = tested on: HEK293 cells transfected with CCX CKR; experiment: Cell growth curves (hemacytometer counting) of HEK293 cells transfected with CCX CKR; type: cell-based, human; settings: ligand in growth medium, growth curves over 6 days; FIG. 4
Description: Another set of experiments were conducted to ascertain whether CCX CKR plays a role in cell growth. One experiment involved culturing (1) untransfected HEK293 cells (ATCC #CRL 1573) (control), (2) HEK 293 cells transfected with CCX CKR as a polyclonal mixture, and (3) three different clones of HEK293 stably transfected with CCX CKR, thus giving a total of […] different cell cultures. Each of these cultures were obtained by seeding 50,000 cells/well in triplicate. The three different clones (clones 9, 12 and 13) were obtained by a limited dilution of the polyclonal mixture of cells.
Cells were allowed to attach for 12 hours in growth medium (Dulbecco's minimal essential medium with 10% fetal bovine serum), then cultured in the absence of fetal bovine serum for 12 hours to synchronize the cell cycle. Growth medium was then added back to cells, and plates returned to the incubator. Each day for 6 days, cells were removed with trypsin and counted with a hemacytometer.
Another set of experiments were conducted using the same procedure just described to address two issues: (1) whether the autoactive response observed in the first set of experiments was simply a consequence of the transformation process, and (2) to determine what effect ligands had on the ability of CCX CKR to promote cellular growth. […]

With `CC1CCCCN1CCCN(Cc1ccc(OCc2ccccc2)cc1)C(=O)NC12CC3CC(CC(C3)C1)C2` (centres unmarked) [Compound II] the “Modulation of CCX CKR function (agonist or antagonist)” value (“Modulation of CCX CKR function” for short) (CCX CKR [1]) was “Compound II (antagonist)”.

In the case of `CCC(c1nc2ccccc2c(=O)n1C)N(Cc1ccco1)C(=O)Nc1cccc(C(F)(F)F)c1` (centres unmarked) [Compound III], the “Modulation of CCX CKR function” value (CCX CKR [1]) is reported as “Compound III (agonist)”.

With `CC1CCCCN1CCCN(Cc1ccc(OCc2ccccc2)cc1)C(=O)Nc1ccc(Cl)c(Cl)c1` (centres unmarked) [Compound I] the “Modulation of CCX CKR function” value (CCX CKR [1]) was “Compound I (antagonist)”.

For “ELC: chemokine, CCX CKR ligand, also referred to as MIP-3β”, the “Effect on protein expression levels” value [2] is listed as “relatively minor effect on protein expression levels”, the “Change in protein expression on addition of ligand” value (shortened to “Change in protein expression”) [3] is listed as “only a modest change in protein expression” and the “Affinity of CCX CKR for chemokine” value (CCX CKR [4]) is listed as “high affinity”.

B1: TECK: chemokine, CCX CKR ligand (protein, UniProt O15444 24-150, looked up)
C-C motif chemokine 25: QGVFEDCCLAYHYPIGWAVLRRAWTYRIQEVSGSCNLPAAIFYLPKRHRKVCGNPKSREVQRAMKLLDARNKVFAKLHHNTQTFQAGPHAVKKLSSGNSKLSSSKFSNPISSSKRNVSLLISANSGL
For B1, the “Effect on cell growth” value [5] is listed as “modest effect on cell growth activity, with perhaps even a slight decrease in cell growth”, the “Change in protein expression” value [3] is listed as “only a modest change in protein expression” and the “Affinity of CCX CKR for chemokine” value (CCX CKR [4]) is listed as “high affinity”.

B2: SLC: chemokine, CCX CKR ligand, also referred to as 6-Ckine (protein, UniProt O00585 24-134, looked up)
C-C motif chemokine 21: SDGGAQDCCLKYSQRKIPAKVVRSYRKQEPSLGCSIPAILFLPRKRSQAELCADPKELWVQQLMQHLDKTPSPQKPAQGCRKDRGASKTGKKGKGSKGCKRTERSQTPKGP
In the case of B2, the “Change in protein expression” value [3] is listed as “only a modest change in protein expression” and the “Affinity of CCX CKR for chemokine” value (CCX CKR [4]) is listed as “high affinity”.
